Results published in patent publication US20220064289A1 (SHENZHEN BEIKE BIOTECHNOLOGY, published 2022).

Molecular target: T1, CD19 antigen (UniProt P15391 20-556, limits assumed)
T1 construct: whole, on cells; the cell lines are human
T1 sequence (looked up): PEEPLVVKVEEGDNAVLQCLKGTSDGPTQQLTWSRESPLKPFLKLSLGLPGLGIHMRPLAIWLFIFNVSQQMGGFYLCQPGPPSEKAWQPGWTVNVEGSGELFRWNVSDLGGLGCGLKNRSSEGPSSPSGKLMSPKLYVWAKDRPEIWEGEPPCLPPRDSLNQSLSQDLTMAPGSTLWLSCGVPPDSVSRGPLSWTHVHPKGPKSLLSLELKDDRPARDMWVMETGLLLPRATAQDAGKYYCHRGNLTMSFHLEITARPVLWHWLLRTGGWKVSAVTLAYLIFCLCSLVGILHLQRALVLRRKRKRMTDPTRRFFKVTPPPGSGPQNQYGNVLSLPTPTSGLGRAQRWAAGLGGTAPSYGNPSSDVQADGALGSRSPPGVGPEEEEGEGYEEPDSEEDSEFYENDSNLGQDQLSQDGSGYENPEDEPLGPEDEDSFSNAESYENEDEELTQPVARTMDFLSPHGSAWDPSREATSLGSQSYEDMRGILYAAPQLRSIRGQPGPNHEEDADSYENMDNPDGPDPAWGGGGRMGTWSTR
Test: flow cytometry on BV173 cells, detected with FITC-labeled Protein L
Experimental: 1. T cell and BV173 cell experimental group: 5 μg of multi-function proteins TiTE-15, 16 were added to BV173 cells and 3×10\hat{ }5 T cells derived from mononuclear cell-rich white membrane layer of normal human peripheral blood by density gradient centrifugation, and stimulated by OKT3 (50 ng/mL) and IL2 (300 IU/mL) for 14 days, and incubated on ice for 30 min. The supernatant was removed by centrifugation and the cells were re-suspended in 200 μL of PBS. 2 μL of FITC-Labeled recombinant Protein L (ACRO Biosystem, RPL-PF141) was added and incubated on ice for 30 min. The supernatant was removed by centrifugation, washed twice in 500 μL PBS, and re-suspended in 200 μL of PBS.
T cell and BV173 cell negative control group: 3*10E5 T cells respectively (PBMC stimulated with 50 ng/mL OKT3, 300 IU/mL IL2) were mixed with BV173 cells (ATCC) first, and 2 μL APC Mouse anti-Human CD279 (BD, Cat. No. 558694) was added to the cells and incubated on ice for 30 min. The supernatant was removed by centrifugation, and the cells were re-suspended in 200 μL of PBS as a negative control.

B1: multifunctional protein TiTE-15 (other)
chain: DIQMTQTTSSLSASLGDRVTISCRASQDISKYLNWYQQKPDGTVKLLIYHTSRLHSGVPSRFSGSGSGTDYSLTISNLEQEDIATYFCQQGNTLPYTFGGGTKLEITGSTSGSGKPGSGEGSTKGEVKLQESGPGLVAPSQSLSVTCTVSGVSLPDYGVSWIRQPPRKGLEWLGVIWGSETTYYNSALKSRLTIIKDNSKSQVFLKMNSLQTDDTAIYYCAKHYYYGGSYAMDYWGQGTSVTVSSGGGGSITCPPPMSVEHADIWVKSYSLYSRERYICNSGFKRKAGTSSLTECVLNKATNVAHWTTPSLKCIRDPALVHQSGGSGGGGSGGGSGGGGSLQDIQMTQSPSSLSASVGDRVTITCRASQDIRNYLNWYQQKPGKAPKLLIYYTSRLESGVPSRFSGSGSGTDYTLTISSLQPEDFATYYCQQGNTLPWTFGQGTKVEIKGGGGSGGGGSGGGGSEVQLVESGGGLVQPGGSLRLSCAASGYSFTGYTMNWVRQAPGKGLEWVALINPYKGVSTYNQKFKDRFTISVDKSKNTAYLQMNSLRAEDTAVYYCARSGYYGDSDWYFDVWGQGTLVTV
notes: Main peptide chain alone, no co-peptide chain
Q: Does B1 bind?
A: binds
